Targets include DLG1_2, Q12959; HTRA1, Q92743; LIMK2, P53671; MAGI2_2, Q86UL8; MAGI2_3, Q86UL8; NHERF4_4, Q86UT5; PDZRN4_1, Q6ZMN7.
What all share (experiment): holdup assay
Holding throughout (set-up): key: below the threshold = too weak to quantify, mostly under pKd 3.1 to 4
Settings in all cases: plain residues with an end cap or a label only (N-terminal biotin on a linker: ado-ado)

Another assay addresses T1, APBA1_1, Q02410.
T1 sequence (Q02410 651-752, limits assumed, looked up): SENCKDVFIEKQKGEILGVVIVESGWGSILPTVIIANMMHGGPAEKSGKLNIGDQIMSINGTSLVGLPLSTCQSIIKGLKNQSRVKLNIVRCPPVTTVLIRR

The target in the next assay is T2, CARD11, Q9BXL7.
T2 sequence (Q9BXL7 662-765, limits assumed, looked up): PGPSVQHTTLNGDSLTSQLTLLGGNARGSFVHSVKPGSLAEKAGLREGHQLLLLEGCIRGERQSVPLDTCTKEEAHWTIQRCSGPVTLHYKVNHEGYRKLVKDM

The target in another assay is T3, DFNB31_1, Q9P202.
T3 sequence (Q9P202 135-233, limits assumed, looked up): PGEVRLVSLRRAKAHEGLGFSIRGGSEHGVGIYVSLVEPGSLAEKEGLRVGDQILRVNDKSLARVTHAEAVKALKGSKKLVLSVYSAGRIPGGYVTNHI

The next assay concerns the target T4, DFNB31_2, Q9P202.
T4 sequence (Q9P202 274-371, limits assumed, looked up): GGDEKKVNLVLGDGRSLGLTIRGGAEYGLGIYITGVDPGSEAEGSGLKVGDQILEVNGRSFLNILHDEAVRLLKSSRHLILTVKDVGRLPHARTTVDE

The target of the next assay is T5, DFNB31_3, Q9P202.
T5 sequence (Q9P202 811-907, limits assumed, looked up): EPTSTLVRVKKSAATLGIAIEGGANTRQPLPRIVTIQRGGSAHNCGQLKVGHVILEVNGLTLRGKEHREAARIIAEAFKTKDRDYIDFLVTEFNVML

The target of the next assay is T6, DVL3, Q92997.
T6 sequence (Q92997 244-331, limits assumed, looked up): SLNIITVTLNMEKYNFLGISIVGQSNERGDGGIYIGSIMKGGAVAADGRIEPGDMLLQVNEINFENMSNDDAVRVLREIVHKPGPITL

Another assay has as its target T7, FRMPD1, Q5SYB0.
T7 sequence (Q5SYB0 52-145, limits assumed, looked up): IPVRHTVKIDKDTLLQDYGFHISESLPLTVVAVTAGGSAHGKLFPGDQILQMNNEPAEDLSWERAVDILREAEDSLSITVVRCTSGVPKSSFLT

Another assay has as its target T8, GRIP1_5, Q9Y3R0.
T8 sequence (Q9Y3R0 568-668, limits assumed, looked up): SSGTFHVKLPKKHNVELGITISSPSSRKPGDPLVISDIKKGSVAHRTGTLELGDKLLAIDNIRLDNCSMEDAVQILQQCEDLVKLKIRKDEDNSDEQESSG

For another assay, the target named is T9, HTRA4, P83105.
T9 sequence (P83105 378-476, limits assumed, looked up): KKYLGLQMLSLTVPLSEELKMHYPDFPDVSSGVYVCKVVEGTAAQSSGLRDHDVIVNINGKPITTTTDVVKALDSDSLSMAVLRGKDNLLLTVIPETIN

For the next assay, the target named is T10, LIN7C, Q9NUP9.
T10 sequence (Q9NUP9 88-185, limits assumed, looked up): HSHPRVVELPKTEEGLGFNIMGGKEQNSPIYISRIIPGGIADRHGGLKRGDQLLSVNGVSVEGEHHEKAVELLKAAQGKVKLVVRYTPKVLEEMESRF

In another assay the target is T11, RAPGEF6, Q8TEU7.
T11 sequence (Q8TEU7 525-625, limits assumed, looked up): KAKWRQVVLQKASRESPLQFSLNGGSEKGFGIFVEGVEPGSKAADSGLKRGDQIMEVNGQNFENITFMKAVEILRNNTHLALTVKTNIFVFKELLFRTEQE

In the next assay the target is T12, SHANK1, Q9Y566.
T12 sequence (Q9Y566 658-767, limits assumed, looked up): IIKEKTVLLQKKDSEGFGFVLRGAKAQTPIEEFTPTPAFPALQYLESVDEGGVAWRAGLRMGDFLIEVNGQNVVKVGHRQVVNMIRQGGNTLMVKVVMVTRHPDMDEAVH

Another assay concerns the target T13, TIAM2, Q8IVF5.
T13 sequence (Q8IVF5 885-986, limits assumed, looked up): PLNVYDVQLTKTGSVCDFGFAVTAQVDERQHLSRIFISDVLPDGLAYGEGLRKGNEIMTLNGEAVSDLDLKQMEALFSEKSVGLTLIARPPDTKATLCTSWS

Another assay deals with T14, TJP3_3, O95049.
T14 sequence (O95049 375-456, limits assumed, looked up): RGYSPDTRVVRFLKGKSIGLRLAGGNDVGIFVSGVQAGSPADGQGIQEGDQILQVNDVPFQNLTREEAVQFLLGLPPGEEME

Another assay has as its target T15, TX1BP3, O14907.
T15 sequence (O14907 10-122, limits assumed, looked up): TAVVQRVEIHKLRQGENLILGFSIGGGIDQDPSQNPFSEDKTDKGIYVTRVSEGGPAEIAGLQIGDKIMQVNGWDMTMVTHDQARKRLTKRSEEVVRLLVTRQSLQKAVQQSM

Chain of MAGI2_3, Q86UL8 (Q86UL8 600-682): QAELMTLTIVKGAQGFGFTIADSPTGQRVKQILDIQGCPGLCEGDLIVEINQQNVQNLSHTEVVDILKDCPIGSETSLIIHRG
Chain of PDZRN4_1, Q6ZMN7 (Q6ZMN7 213-318): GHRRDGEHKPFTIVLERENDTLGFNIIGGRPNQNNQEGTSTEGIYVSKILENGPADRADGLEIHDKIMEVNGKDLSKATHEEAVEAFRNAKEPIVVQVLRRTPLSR
Chain of HTRA1, Q92743 (Q92743 360-477): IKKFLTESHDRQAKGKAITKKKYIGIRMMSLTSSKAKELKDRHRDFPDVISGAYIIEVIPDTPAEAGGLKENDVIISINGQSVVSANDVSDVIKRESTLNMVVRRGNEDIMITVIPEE
Chain of DLG1_2, Q12959 (Q12959 314-412): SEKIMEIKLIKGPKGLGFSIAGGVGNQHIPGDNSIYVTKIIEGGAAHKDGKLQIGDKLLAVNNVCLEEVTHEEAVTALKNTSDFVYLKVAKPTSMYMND
Chain of NHERF4_4, Q86UT5 (Q86UT5 464-550): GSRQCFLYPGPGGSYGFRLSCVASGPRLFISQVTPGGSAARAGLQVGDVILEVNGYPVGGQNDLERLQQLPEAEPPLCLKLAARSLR
Chain of MAGI2_2, Q86UL8 (Q86UL8 410-522): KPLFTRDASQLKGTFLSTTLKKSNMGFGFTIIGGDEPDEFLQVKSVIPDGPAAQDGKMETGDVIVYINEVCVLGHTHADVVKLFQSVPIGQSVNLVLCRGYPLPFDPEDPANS
Chain of LIMK2, P53671 (P53671 143-248): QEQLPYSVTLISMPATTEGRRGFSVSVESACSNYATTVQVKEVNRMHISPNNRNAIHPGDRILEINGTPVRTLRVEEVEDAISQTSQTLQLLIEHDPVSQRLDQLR

As for MHIQEKGFHV [EPHA6, Q9UF33], the negative-log Kd (pKd) entry was “below the threshold” with APBA1_1, Q02410; “below the threshold” with CARD11, Q9BXL7; “below the threshold” in the assay with DFNB31_1, Q9P202; “below the threshold” in the assay with DFNB31_2, Q9P202; 4.07 in the assay with DFNB31_3, Q9P202; “below the threshold” in the assay with DLG1_2, Q12959. Moreover, the negative-log Kd (pKd) result with DVL3, Q92997 was “below the threshold”; with FRMPD1, Q5SYB0 it was “below the threshold”; with GRIP1_5, Q9Y3R0 it was “below the threshold”; with HTRA1, Q92743, 4.61; with HTRA4, P83105 it was 3.49; in the assay with LIMK2, P53671 it was “below the threshold”. Further, the negative logarithm of the Kd (pKd) result is on record as “below the threshold” in the assay with LIN7C, Q9NUP9; “below the threshold” with MAGI2_2, Q86UL8; “below the threshold” in the assay with MAGI2_3, Q86UL8; “below the threshold” in the assay with NHERF4_4, Q86UT5; “below the threshold” with PDZRN4_1, Q6ZMN7; “below the threshold” with RAPGEF6, Q8TEU7. Besides, the pKd entry is recorded as “below the threshold” in the assay with SHANK1, Q9Y566; “below the threshold” with TIAM2, Q8IVF5; “below the threshold” with TJP3_3, O95049; “below the threshold” with TX1BP3, O14907.

Turning to VLYPREGTEV [FOXI1, Q12951], the pKd entry with APBA1_1, Q02410 is “below the threshold”; with CARD11, Q9BXL7 it was “below the threshold”; with DFNB31_1, Q9P202, 3.8; with DFNB31_2, Q9P202 it was “below the threshold”; with DFNB31_3, Q9P202, “below the threshold”; with DLG1_2, Q12959 it was 4.84. The negative-log Kd (pKd) result is “below the threshold” in the assay with DVL3, Q92997; “below the threshold” with FRMPD1, Q5SYB0; “below the threshold” with GRIP1_5, Q9Y3R0; 4.64 in the assay with HTRA1, Q92743; 4.29 with HTRA4, P83105; “below the threshold” in the assay with LIMK2, P53671. The pKd with LIN7C, Q9NUP9 is 4.26; in the assay with MAGI2_2, Q86UL8, 3.74; in the assay with MAGI2_3, Q86UL8 it was “below the threshold”; with NHERF4_4, Q86UT5, “below the threshold”; with PDZRN4_1, Q6ZMN7, 4.25; in the assay with RAPGEF6, Q8TEU7, “below the threshold”. Besides, the pKd in the assay with SHANK1, Q9Y566 was 3.49; with TIAM2, Q8IVF5, “below the threshold”; in the assay with TJP3_3, O95049, 3.48; with TX1BP3, O14907 it was 3.73.

Turning to GTGYDRKDYV [CLDN3, O15551], the pKd entry was “below the threshold” in the assay with APBA1_1, Q02410; “below the threshold” with CARD11, Q9BXL7; “below the threshold” with DFNB31_1, Q9P202; “below the threshold” with DFNB31_2, Q9P202; 4.06 with DFNB31_3, Q9P202; “below the threshold” in the assay with DLG1_2, Q12959. For the same molecule, the negative-log Kd (pKd) with DVL3, Q92997 is 3.72; with FRMPD1, Q5SYB0, “below the threshold”; with GRIP1_5, Q9Y3R0, “below the threshold”; with HTRA1, Q92743 it was 4.14; with HTRA4, P83105 it was “below the threshold”; with LIMK2, P53671 it was “below the threshold”. Further, the negative logarithm of the Kd (pKd) entry with LIN7C, Q9NUP9 is “below the threshold”; in the assay with MAGI2_2, Q86UL8, “below the threshold”; in the assay with MAGI2_3, Q86UL8, 3.48; with NHERF4_4, Q86UT5, “below the threshold”; in the assay with PDZRN4_1, Q6ZMN7, “below the threshold”; with RAPGEF6, Q8TEU7 it was “below the threshold”. Further, the pKd result is “below the threshold” with SHANK1, Q9Y566; “below the threshold” with TIAM2, Q8IVF5; 3.73 with TJP3_3, O95049; “below the threshold” in the assay with TX1BP3, O14907.

As to RSSGGDDFWF [KCNV1, Q6PIU1], the pKd result in the assay with APBA1_1, Q02410 is “below the threshold”; with CARD11, Q9BXL7, “below the threshold”; with DFNB31_1, Q9P202, “below the threshold”; in the assay with DFNB31_2, Q9P202, “below the threshold”; with DFNB31_3, Q9P202, 4.02; with DLG1_2, Q12959 it was 3.67. For the same molecule, the negative logarithm of the Kd (pKd) in the assay with DVL3, Q92997 was 3.64; with FRMPD1, Q5SYB0, “below the threshold”; with GRIP1_5, Q9Y3R0 it was “below the threshold”; with HTRA1, Q92743 it was 4.61; with HTRA4, P83105 it was “below the threshold”; with LIMK2, P53671, “below the threshold”. Besides, the negative-log Kd (pKd) is 4.1 with LIN7C, Q9NUP9; “below the threshold” with MAGI2_2, Q86UL8; “below the threshold” in the assay with MAGI2_3, Q86UL8; 4.43 with NHERF4_4, Q86UT5; “below the threshold” with PDZRN4_1, Q6ZMN7; “below the threshold” in the assay with RAPGEF6, Q8TEU7. Moreover, the negative logarithm of the Kd (pKd) result with SHANK1, Q9Y566 is “below the threshold”; with TIAM2, Q8IVF5 it was 4.47; with TJP3_3, O95049 it was “below the threshold”; with TX1BP3, O14907, “below the threshold”.

With RDPPAEWTRV [PTPN18, Q99952], the negative-log Kd (pKd) result was “below the threshold” with APBA1_1, Q02410; “below the threshold” with CARD11, Q9BXL7; 4.17 in the assay with DFNB31_1, Q9P202; “below the threshold” with DFNB31_2, Q9P202; “below the threshold” in the assay with DFNB31_3, Q9P202; 4.48 with DLG1_2, Q12959. Moreover, the negative logarithm of the Kd (pKd) entry in the assay with DVL3, Q92997 was “below the threshold”; with FRMPD1, Q5SYB0 it was “below the threshold”; in the assay with GRIP1_5, Q9Y3R0 it was “below the threshold”; with HTRA1, Q92743, 4.4; with HTRA4, P83105, 4.01; in the assay with LIMK2, P53671 it was “below the threshold”. In addition, the pKd result in the assay with LIN7C, Q9NUP9 is “below the threshold”; with MAGI2_2, Q86UL8, 4.04; in the assay with MAGI2_3, Q86UL8, 4.46; with NHERF4_4, Q86UT5, “below the threshold”; with PDZRN4_1, Q6ZMN7, “below the threshold”; with RAPGEF6, Q8TEU7 it was “below the threshold”. Further, the pKd is 5.05 with SHANK1, Q9Y566; “below the threshold” in the assay with TIAM2, Q8IVF5; “below the threshold” in the assay with TJP3_3, O95049; 4.06 in the assay with TX1BP3, O14907.

What is called pKd is the Kd on a negative log10 scale, so that one unit is a factor of ten.

Values taken from PMC9482650, “Quantitative fragmentomics allow affinity mapping of interactomes” (Nature Communications, 2022).
